Source: US20080044436A1, “Method for Screening and Compositions for Treating Cancers” (priority 2004, published 2008)

Experiments:
Type in all cases: cell-based, human
[1] = tested on: proximal Sp1 response element of the p21 and p27 promoters; assay: Chromatin immunoprecipitation with anti-TReP-132 antibody in T47-D cells; conditions: DNA from progesterone-treated vs untreated T47-D cells
Protocol: FIG. 14C: Chromatin was from T47-D cells treated or not with […] progesterone. IPs were carried out with anti-TReP-132 antibodies ([…]). Controls were DNA-free PCR products (column 1, H2O), PCR products of unprecipitated genomic DNA (columns 2 and 3, input), immunoprecipitations with no antibody (columns 4 and 5, no Ab) or with irrelevant antibody (columns 6 and 7, anti-HA). The extracted DNA was amplified using the same primers as in FIG. 13C.
HTO cells incubated in the presence of Dox or T47-D cells were grown to 70% confluence in petri dishes (150 mm diameter). For HTO cells, doxycycline was removed from half of the dishes 48 hours before lysis. T47-D cells were incubated with 30 nM progesterone or with ethanol containing 0.2% BSA-RPMI for 2.5 hours before lysis. Cell lysates were then sonicated on ice, 15 times for 15 seconds at 45 second intervals. A volume of lysate corresponding to 4×10^6 cells was immunoprecipitated by using 4 μg of antibody (indicated earlier) and an anti-HA antibody as negative control. The same volume was set aside for later purification of genomic DNA. […]

p16^INK4 gene = assay: RNase protection assay of CDKI transcription in HeLa cells, p16; conditions: HeLa Tet-off cells, doxycycline removed
pRb = assay: Western blot of pRb phosphorylation in HTO cells; conditions: HTO-GFP/TReP-132 cells after Dox removal, almost undetectable at 72 hours
Protocol: FIG. 9B: Protein extracts (20 μg) of HTO cells expressing GFP or GFP and TReP-132 under the control of doxycycline, incubated or not with dox for the indicated times, were analyzed by western blot using anti-pRb antibodies directed against all pRb forms (hyperphopshorylated, phosphorylated and hypophosphorylated) or only against pRb phosphorylated at Ser 780, a target residue of cyclin D1/CDK4.
Cells were washed twice with cold PBS (Phosphate Buffered Saline), then harvested either in cold RIPA buffer (1×PBS, 1% Nonidet P-40, 0.5% sodium deoxycholate, 0.1% SDS, phosphatase and protease inhibitors) for co-immunoprecipitation analysis, or in lysis buffer (50 mM Tris, pH 8.0, 0.1% IGEPAL (Sigma)) for kinase assays. The lysates were incubated for 30 min on ice and cell debris was eliminated by centrifugation. The extracts were then aliquoted and stored at −80° C. For western blot analysis, RIPA or lysate buffer was used. For immunoprecipitations, whole cell lysates (1 mg) in RIPA buffer were preincubated with 0.1 μg of mouse or rabbit IgG and 20 μl of protein A-Sepharose beads (Amersham Biosciences, Uppsala, Sweden) for 30 min at 4° C. […] The blots were then visualized with ECL reagent and quantified with SCANWISE and Perfect-IMAGE V-5.3 software (CLARA VISION, France).

CC(=O)[C@H]1CC[C@H]2[C@@H]3CCC4=CC(=O)CC[C@]4(C)[C@H]3CC[C@]12C [progesterone, reference compound]
TReP-132 binding to proximal Sp1 response element of p21 and p27 promoters [1]: much more pronounced

B1: TReP-132: Transcriptional Regulating Protein of 132 kDa, polypeptide comprising SEQ ID NO: 2; here expressed in cells from vectors (protein)
chain: MGDQQLYKTNHVAHGSENLFYQQPPLGVHSGLNHNYGNAVTGGGMDAPQASPISPHFPQDTRDGLGLPVGSKNLGQMDTSRQGGWGSHAGPGNHVQLRGNLANSNMMWGAPAQAEPTDGYQYTYSQASEIRTQKLTSGVLHKLDSFTQVFANQNLRIQVNNMAQVLHTQSAVMDGAPDSALRQLLSQKPMEPPAPAIPSRYQQVPQQPHPGFTGGLSKPALQVGQHPTQGHLYYDYQQPLAQVPVQGGQPLQAPQMLSQHMQQMQQHQYYPPQQQQQAGQQRISMQEIQTQPQQIRPSQPQPPPQQQQPQQLQLQQRQGSMQIPQYYQPQPMMQHLQEQQQQQMHLQPPSYHRDPHQYTPEQAHTVQLIPLGSMSQYYYQEPQQPYSHPLYQQSHLSQHQQREDSQLKTYSSDRQAQAMLSSHGDLGPPDTGMGDPASSDLTRVSSTLPHRPLLSPSGIHLNNMGPQHQQLSPSAMWPQMHLPDGRAQPGSPESSGQPKGAFGEQFDAKNKLTCSICLKEFKNLPALNGHMRSHGGMRASPNLKQEEGEKVLPPQPQPPLPPPPPPPPPPQLPPEAESLTPMVMPVSVPVKLLPPKPSSQGFTNSTVAAPSARDKPASSMSDDEMPVLEIPRKHQPSVPKAEEPLKTVQEKKKFRHRPEPLFIPPPPSYNPNPAASYSGATLYQSQLRSPRVLGDHLLLDPTHELPPYTPPPMLSPVRQGSGLFSNVLISGHGPGAHPQLPLTPLTPTPRVLLCRSNSIDGSNVTVTPGPGEQTVDVEPRINIGLRFQAEIPELQDISALAQDTHKATLVWKPWPELENHDLQQRVENLLNLCCSSALPGGGTNSEFALHSLFEAKGDVMVALEMLLLRKPVRLKCHPLANYHYAGSDKWTSLERKLFNKALATYSKDFIFVQKMVKSKTVAQCVEYYYTWKKIMRLGRKHRTRLAEIIDDCVTSEEEEELEEEEEEDPEEDRKSTKEEESEVPKSPEPPPVPVLAPTEGPPLQALGQPSGSFICEMPNCGAVFSSRQALNGHARIHGGTNQVTKARGAIPSGKQKPGGTQSGYCSVKSSPSHSTTSGETDPTTIFPCKECGKVFFKIKSRNAHMKTHRQQEEQQRQKAQKAAFAAEMAATIERTTGPVGAPGLLPLDQLSLIKPIKDVDILDDDVVQQLGGVMEEAEVVDTDLLLDDQDSVLLQGDAEL
p16 gene transcription (p16^INK4 gene): induction | phosphorylated pRb (ppRb) level (pRb): marked reduction
